Results on one substance are retold here after PMC4190115.

The assay concerns the target His-tagged N-terminal domain (1-165 aa) of matrix protein 1 (M1) of influenza A virus A/WSN/33 (H1N1) (Influenza A virus A/WSN/33 (H1N1)) (UniProt P05777). Briefly: crystal structure.

As to “His-tagged N-terminal domain (1-165 aa) of matrix protein 1 (M1) of influenza A virus A/WSN/33 (H1N1) (from UniProt P05777 1-165) (domain or fragment)”, the stoichiometry N (in general, a count of units in the complex or per binding partner) stood at 2.
